One molecule from patent US20120171122A1 (published 2012) can be followed below.

This assay addresses T1, N-terminally biotinylated peptide HRRSARYLDTVL
T1 construct: Captured through its biotin on streptavidin coated onto the ELISA wells; also called ligand of NHERF PDZ1 mutant H9
T1 peptide: Biotin-HRRSARYLDTVL
Put plainly: ELISA; serial dilutions of GST-PDZ fusion on biotinylated peptide captured on streptavidin-coated wells; anti-His HRP detection. Here is the method:
The GST-PDZ fusion protein expressed by clone H2 was partially characterized. The DNA of clone H2 was transformed into E. coli strain BL21 [DE3] and the resulting transformant induced in 1 mL culture volume using 0.1 mM IPTG for 2.5 hours at 30° C. with shaking at 300 rpm. The cells were harvested from the culture medium and lysed using BugBuster (Novagen). Batch affinity purification was carried out using 50 μl of glutathione affinity resin (Novagen), eluting the bound protein in reduced glutathione elution buffer. […] The eluted protein was tested by ELISA for binding to N-terminally biotinylated peptide […] (SEQ ID NO: 14) bound to 0.1 μg of streptavidin coated onto each well of an ELISA plate. Serial dilutions of the protein were added to wells in which the peptide was present or absent (negative controls) and immuno-detection of a C-terminal hexahistidine tag provided by the modified pGEX-2TK vector was carried out using a horseradish peroxidase-conjugated antibody (Roche).

No end group written: not given here. *: point of attachment. Biotin = O=C1N[C@H]2[C@H](CS[C@H]2CCCCC(=O)*)N1

B1: GST-PDZ fusion protein expressed by clone H2 (NHERF PDZ1 loop-variant H2, CHPQFC inserted in loop β23 of NHERF PDZ1 mutant H9) (designed binder, not shown: a dimerising Fc or GST; large carriers; small tags and cut ends)
chain: LPRLCCLEKGPNGYGFHLHGEKGCHPQFCKVGQYIGLVVPGSPAEKAGLLAGDRLVEVNGENVEKETHQQVVSRIRAALNAVCLLVVDPE
notes: Partially purified on glutathione resin from induced E. coli BL21[DE3]; also called PDZ loop-variant H2; NHERF PDZ loop-variant H2
For the molecule B1, the binding result was “binds”.
